Assay results taken from patent publication US10435681B2, “Compounds and methods for stabilizing thrombin activity” (Omrix Biopharmaceuticals Ltd., priority 2013, dated 2019).
Entries after “also recorded” stand apart in the source; their conditions may differ. Where a name gives a salt, the structure may show the parent alone. Bridges are numbered along the chain shown (N, C = ends). Where no end group is shown, it is not given here.

How the values were obtained:
thrombin [1] = target: T1, thrombin (Homo sapiens, UniProt P00734); assay: Peptide microarray binding with fluorescently labelled thrombin; details: for Binding intensity of thrombin (100 μg/ml): DYLIGHT 650-Thrombin; for binding to thrombin (in words): fluorescent thrombin
T1 construct: yields the active alpha thrombin molecule which is a 295 amino acid polypeptide (human) composed of a heavy and light chain
Method: A screen was carried out to identify gamma loop mutants that may show improved binding to thrombin. This was carried out with fluorescent thrombin on an array of gamma loop peptide mutants. Three such cyclized peptides with the highest binding efficiency were tested for their capacity to stabilize thrombin without compromising thrombin activity towards fibrinogen (see Example 4 below).
A library of 1,676 15-meric peptides spanning the sequences of proteins interacting with the gamma loop of thrombin such as thrombin itself, anti-thrombin III (ATIII), thrombomodulin, heparin cofactor II, bovine pancreatic trypsin inhibitor (BPTI), and hirudin, and modifications of the thrombin gamma loop sequence were generated. Peptides were synthesized using SPOT synthesis (Wenschuh H, et al. (2000). Coherent membrane supports for parallel microsynthesis and screening of bioactive peptides. Biopolymers 55:188-206) and were chemoselectively immobilized onto functionalized glass slides as described (Panse S, et al. (2004) Profiling of generic anti-phosphopeptide antibodies and kinases with peptide microarrays using radioactive and fluorescence-based assays. Mol Divers 8:291-299.2.). Each peptide was printed in triplicates onto the microarray. For binding studies, 100 μg of purified thrombin (Omrix biopharmaceuticals) were directly labeled with DYLIGHT® 650 Microscale Antibody Labeling Kits, THERMO SCIENTIFIC™ (#84536) and diluted in blocking buffer SUPERBLOKTM T20 (TBS) Blocking Buffer, THERMO SCIENTIFICTM (#37536). […] cyclic gamma-loop derived peptide for one hour at 30° C. in a HS4800™ microarray processing station (Tecan) (Masch A, et al., (2010) Antibody signatures defined by high-content peptide microarray analysis. Methods Mol Biol 669:161-172).
(§1) Microarrays were washed with 0.1% TWEEN®20 in 1× TBS followed by 0.05% TWEEN®20 in 0.1× SSC and dried in a stream of nitrogen. Each microarray was scanned using GENEPIX® Autoloader 4200AL (Molecular Devices, Pixel size: 10 μm). Signal intensities were evaluated using spot recognition software GENEPIX® Pro 7.0 analysis software (Molecular Devices). For each peptide, the mean signal intensity of the three triplicates was extracted. Further evaluation and representation of results was performed using the statistical computing and graphics software R (Version 2.11.1, www.r-project.org).
(§2) One array included peptides based on the thrombin sequence. Any peptide isolated from this library may reflect possible regions in the thrombin protein that may interact with the gamma loop. […] The fluorescence for the strongest binding candidates (hits) was quantified on an arbitrary scale of 0-65535 (2^16). Thrombin activity was assesed as described in Example 1.

thrombin [2] = target: T1, thrombin; assay: Thrombin stability testing: remaining clotting activity of 1000 IU/ml liquid thrombin after storage at 37° C.; format: biochemical; details: for stabilization of thrombin activity (in words): 0.5 mM peptide, 1000 IU/ml thrombin, 37° C., 0, 3 and 7 days; for maintaining thrombin activity compared with 0.5 mM gamma loop peptide (in words): 3% (w/v) arginine
Method: Aqueous liquid thrombin, in its purified and concentrated form 1000 international units IU/ml may undergo autolysis at room temperature causing a significant loss of activity e.g. towards a heterologous substrate. E.g. thrombin activity towards a heterologous substrate is reduced when a liquid thrombin formulation is incubated at room temperature for prolonged periods of time (e.g. 72 to 144 hours), inter alia, due to autolytic degradation. The decrease of thrombin activity towards a heterologous substrate in aqueous liquid solution can be assessed by measuring thrombin activity after prolonged periods of time and under permissive temperature (e.g. 37° C.). In the following experiments, the effect of a peptide on the stability of thrombin was studied under different conditions.
Aqueous liquid purified and concentrated thrombin (1000 IU/ml; equivalent to about 10 μM) was aliquoted and placed in a 37° C. incubator for 3 days (72 hours), 7 days (168 hours) and 14 days (336 hours). Prior to incubation, thrombin samples were spiked with indicated amounts of different tested peptides or with a control thrombin inhibitor: benzamidine or arginine *HCl (“arginine”). Specific peptides, their concentrations, and thrombin inhibitors used are indicated in each Example. Following the incubation period, the samples were frozen at −80° C. until testing the thrombin activity. Just before thrombin activity assay testing, all the samples were thawed and 100-fold diluted into a dilution buffer (0.4% tri-sodium citrate di-hydrate, 0.9% sodium chloride and 1% BSA, pH=7.5) to bring the thrombin concentration in the sample to that within the specifications of the assay (4-10 IU/ml) and to dilute the tested peptides in the sample to a negligible concentration.
(§3) Thrombin activity was assessed by clotting time measurements using STart4 Coagulation Instrument (DIAGNOSTICA STAGO™, Asnieres sur Seine, France). The assay is a modification of the European Pharmacopoeia Assay procedure, 1997, 0903, p. 858. Briefly, a calibration curve was prepared by mixing thrombin standard with a fibrinogen solution of 0.1% fibrinogen content (Enzyme Research Laboratories, Ind., USA). Thrombin concentration in the different tested samples was then calculated from the calibration curve by their clotting time (the concentration was extrapolated from the calibration curve).
For stability testing of 1000IU/ml thrombin following storage with or without peptides, testing was carried out as described above. Dilutions (1:100) were carried out before measuring the activity.
All of these peptides (“mutant gamma loop peptides” identified in Example 3, random peptides, thrombin derived peptides, and “gamma loop binding peptides” mentioned above) were tested for their ability to stabilize thrombin activity at a concentration of 0.5 mM as described in Example 2.

gamma loop of thrombin = target: T2, gamma loop of thrombin (Homo sapiens, UniProt P00734); assay: Peptide microarray binding screen with fluorescent gamma loop peptide; details: scale 0-65535
T2 construct: Fluorescein-labeled cyclic gamma-loop derived peptide; made in house; host or cells: chemical synthesis
Method: Based on the results disclosed in Example 2, the gamma loop peptide was used as a bait to find additional peptides which may positively affect the stability of thrombin. For this purpose, a binding screen was carried out using a fluorescent gamma loop peptide incubated with several peptide arrays.
A library of 1,676 15-meric peptides spanning the sequences of proteins interacting with the gamma loop of thrombin such as thrombin itself, anti-thrombin III (ATIII), thrombomodulin, heparin cofactor II, bovine pancreatic trypsin inhibitor (BPTI), and hirudin, and modifications of the thrombin gamma loop sequence were generated. Peptides were synthesized using SPOT synthesis (Wenschuh H, et al. (2000). Coherent membrane supports for parallel microsynthesis and screening of bioactive peptides. Biopolymers 55:188-206) and were chemoselectively immobilized onto functionalized glass slides as described (Panse S, et al. (2004) Profiling of generic anti-phosphopeptide antibodies and kinases with peptide microarrays using radioactive and fluorescence-based assays. Mol Divers 8:291-299.2.). Each peptide was printed in triplicates onto the microarray. For binding studies, 100 μg of purified thrombin (Omrix biopharmaceuticals) were directly labeled with DYLIGHT® 650 Microscale Antibody Labeling Kits, THERMO SCIENTIFIC™ (#84536) and diluted in blocking buffer SUPERBLOKTM T20 (TBS) Blocking Buffer, THERMO SCIENTIFICTM (#37536). The microarrays were incubated with 10 μg/ml DYLIGHT® 650-Thrombin or a Fluorescein-labeled cyclic gamma-loop derived peptide for one hour at 30° C. in a HS4800™ microarray processing station (Tecan) (Masch A, et al., (2010) Antibody signatures defined by high-content peptide microarray analysis. Methods Mol Biol 669:161-172).
as §1, §2

thrombin [3] = target: T1, thrombin; assay: Thrombin inhibition testing: clotting activity of 10 IU/ml thrombin towards fibrinogen in the presence of the additive; format: biochemical; details: for reduction/inhibition of thrombin activity / inhibition of thrombin activity: 10 IU/ml thrombin; for inhibition of thrombin activity: 0.5 mM additive
Method: as §3
For inhibition testing, the clotting activity of 10 IU/ml thrombin was measured in the presence or absence of peptides.
The assay was carried out as described in Example 1.

Compound | Binding intensity of thrombin (100 μg/ml) (thrombin [1]) | Binding intensity of gamma loop (gamma loop of thrombin) | stabilization of thrombin activity (in words) (thrombin [2]) | further results
N=C(N)NCCC[C@H](N)C(=O)O [arginine, arginine*HCl] |  |  |  | thrombin activity following storage (in words) (thrombin [2]; 0.5-5% (w/v) arginine, concentrated thrombin, up to 48 hours at 37° C.): maintained thrombin activity following storage; maintaining thrombin activity compared with 0.5 mM gamma loop peptide (in words) (thrombin [2]; 72 hours at 37° C.): not more effective; maintaining thrombin activity compared with 0.5 mM gamma loop peptide (in words) (thrombin [2]; 144 hours at 37° C.): only marginally so; reduction/inhibition of thrombin activity (thrombin [3]; 0.5% (w/v) arginine): about 50%; reduction/inhibition of thrombin activity (thrombin [3]; 0.5% (w/v) arginine, listed as Arginine): 50%; reduction/inhibition of thrombin activity (thrombin [3]; 2% (w/v) arginine): > 95%; inhibition of thrombin (in words) (thrombin [3]; 3% (w/v) arginine, extrapolated from FIG. 2A): inhibit thrombin almost entirely
WCYVAGKPGDFGYCD [Thr_069, thrombin derived peptide] | 3141 | 50553 arbitrary units | minimal effect on thrombin stability; also recorded: weaker stabilization effect | binding to thrombin (in words) (thrombin [1]): very weak binding to thrombin; stabilization of thrombin activity (in words) (thrombin [2]; listed as SEQ ID NO:7): capable of stabilizing liquid aqueous thrombin
CKETWTANVGKC (disulfide 1-12 (inferred)) [SEQ ID NO:3, gamma loop peptide cyclized with terminal cysteine residues] |  |  | efficient stabilization of thrombin activity; also recorded: capable of stabilizing liquid aqueous thrombin | 
ISMLEKIYIHPRYNW [Thr_111, thrombin derived peptide] | 60199 | 32804 arbitrary units | increased thrombin degradation; also recorded: destabilization effect | binding to thrombin (in words) (thrombin [1]): strongest interaction with thrombin
N=C(N)c1ccccc1 [Benzamidine] |  |  |  | inhibition of thrombin activity (thrombin [3]): 20%
LGNKKFVSGSRFVST [Rnd_inter_316] | 12353 | 26628 arbitrary units |  | stabilization of thrombin activity (in words) (thrombin [2]; listed as SEQ ID NO:12): some stabilization effect; also recorded: capable of stabilizing liquid aqueous thrombin; inhibition of thrombin activity (in words) (thrombin [3]; any concentration tested): absolutely no inhibition
KETWTANVGK [SEQ ID NO:1] |  |  |  | inhibition of thrombin activity (thrombin [3]): about 20%
RIRITDNMFSAGYKP [Thr_136_CS, thrombin derived peptide, Cysteine replaced by Serine] | 5535 | 25278 arbitrary units | least effective; also recorded: weaker stabilization effect | binding to thrombin (in words) (thrombin [1]): weakest fluorescent signal; stabilization of thrombin activity (in words) (thrombin [2]; listed as SEQ ID NO:11): capable of stabilizing liquid aqueous thrombin
SGIESQLWRSRYPHK [Thr_032_CS, thrombin derived peptide, Cysteine replaced by Serine] | 15079 | 35117 arbitrary units | some stabilization effect | stabilization of thrombin activity (in words) (thrombin [2]; listed as SEQ ID NO:10): capable of stabilizing liquid aqueous thrombin

Continued, in another order:

Binding intensity of thrombin (100 μg/ml) (thrombin [1]) | Binding intensity of gamma loop (gamma loop of thrombin) | stabilization of thrombin activity (in words) (thrombin [2]) | Compound | further results
23646 | 19539 arbitrary units |  | SHNQRFVTYLGSKLG [Rnd_inter_155] | stabilization of thrombin activity (in words) (thrombin [2]; listed as SEQ ID NO:13): some stabilization effect; also recorded: capable of stabilizing liquid aqueous thrombin
 |  | inefficient | CKETWTAYVGKC (disulfide 1-12 (inferred)) [SEQ ID NO:5, cyclized mutant gamma loop peptide] | 
 |  | inefficient | CKETWTANVLKC (disulfide 1-12 (inferred)) [SEQ ID NO:6, cyclized mutant gamma loop peptide] | 
18537 | 40787 arbitrary units | some stabilization effect | NITRSGIESQLWRSR [Thr_031_CS, thrombin derived peptide, Cysteine replaced by Serine] | stabilization of thrombin activity (in words) (thrombin [2]; listed as SEQ ID NO:9): capable of stabilizing liquid aqueous thrombin
 |  | inefficient | CKNTWTANVGKC (disulfide 1-12 (inferred)) [SEQ ID NO:4, cyclized mutant gamma loop peptide] | 
